Assay [1] concerns the target microtubules of recombinant human TUBA1B/TUBB3 tubulin with TUBB3 R262H (human) (UniProt P68363).
In assay [2] the target is microtubules of recombinant human TUBA1B/TUBB3 tubulin with TUBB3 R262A (human) (UniProt P68363).
The target in assay [3] is T1, microtubules of recombinant human TUBA1B/TUBB3 tubulin, wild type (human, UniProt P68363-1 1-451; Q13509-1 1-450, K40R).
T1 construct: Polymer of alpha/beta heterodimers stabilised with taxol; also called WT MTs; WT MT; source: HighFive insect cells (baculovirus), purified (DEAE Sepharose, TALON, anti-FLAG resin), polymerized with taxol; not shown: FLAG (DYKDDDDK)
The assay is described as follows: single-molecule motility assay (total internal reflection fluorescence microscopy); MTs immobilised on PEG-coated glass via streptavidin and biotinylated nonmotile kinesin HK340-E236A; BG-549-labelled HK432 at 0.4 nM; x2 MA buffer pH 6.8, 1 mM ATP, 1 mg/ml casein, 10 uM taxol, 25 °C. Particulars: both partners purified.

Assay [4] addresses T2, microtubules of recombinant human TUBA1B/TUBB3 tubulin with TUBB3 R262A (human, UniProt P68363-1 1-451; Q13509-1 1-450, K40R | R262A).
T2 construct: human beta3-tubulin TUBB3 with the synthetic mutation R262A; also called R262A MTs; β-R262A MT; source: HighFive insect cells (baculovirus), purified (DEAE Sepharose, TALON, anti-FLAG resin), polymerized with taxol; not shown: FLAG (DYKDDDDK)
The assay is described as above. Particulars: both partners purified.

Assay [5] deals with T2, microtubules of recombinant human …. The assay is described as follows: co-sedimentation; BG-549-labelled HK349 with MTs; x2 MA buffer, 1 mg/ml casein, 40 uM taxol, 1 U/ml apyrase (nucleotide-free state). Particulars: both partners purified.
Assay [6] shares this target. The assay is described as follows: co-sedimentation; BG-549-labelled HK349 with MTs; x2 MA buffer, 1 mg/ml casein, 40 uM taxol, 1 mM ADP and 1 U/ml hexokinase (ADP state). Particulars: both partners purified.
Assay [7] shares this target. The assay is described as follows: co-sedimentation; BG-549-labelled HK349 with MTs; x2 MA buffer, 1 mg/ml casein, 40 uM taxol, 1 mM AMPPNP and 1 U/ml apyrase (AMPPNP state). Particulars: both partners purified.

The values below come from PMC4735607, “Reversal of axonal growth defects in an extraocular fibrosis model by engineering the kinesin–microtubule interface” (Nature Communications, 2016).

Where a chain is given by its changes, count along the chain named. Numbers in names are those of the source.

T1 sequence (P68363 whole entry K40R, chain 1 of 2): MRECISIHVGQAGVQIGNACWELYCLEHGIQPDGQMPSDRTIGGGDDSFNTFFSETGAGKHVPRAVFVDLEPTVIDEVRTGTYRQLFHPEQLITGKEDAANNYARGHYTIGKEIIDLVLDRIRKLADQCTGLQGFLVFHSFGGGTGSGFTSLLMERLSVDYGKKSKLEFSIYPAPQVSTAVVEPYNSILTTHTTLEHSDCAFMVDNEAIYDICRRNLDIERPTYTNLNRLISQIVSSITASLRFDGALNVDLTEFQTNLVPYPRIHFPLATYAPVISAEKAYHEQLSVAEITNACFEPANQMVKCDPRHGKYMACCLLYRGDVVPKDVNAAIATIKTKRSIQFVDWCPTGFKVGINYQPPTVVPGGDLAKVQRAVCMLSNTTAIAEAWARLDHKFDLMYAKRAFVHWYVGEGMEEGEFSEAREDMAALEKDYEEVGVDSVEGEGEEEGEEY
T1 sequence (Q13509 whole entry, chain 2 of 2): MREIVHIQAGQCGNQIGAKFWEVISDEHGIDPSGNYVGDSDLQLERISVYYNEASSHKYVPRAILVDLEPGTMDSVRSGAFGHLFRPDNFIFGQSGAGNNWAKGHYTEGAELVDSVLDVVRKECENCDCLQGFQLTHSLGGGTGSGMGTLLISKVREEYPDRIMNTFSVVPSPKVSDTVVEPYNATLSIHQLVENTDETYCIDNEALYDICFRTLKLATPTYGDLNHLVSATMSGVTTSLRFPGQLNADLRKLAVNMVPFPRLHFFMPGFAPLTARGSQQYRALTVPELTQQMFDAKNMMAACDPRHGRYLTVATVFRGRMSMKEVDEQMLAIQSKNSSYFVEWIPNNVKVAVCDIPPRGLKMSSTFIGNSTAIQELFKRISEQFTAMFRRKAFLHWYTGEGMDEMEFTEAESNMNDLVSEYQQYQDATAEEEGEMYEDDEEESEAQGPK
T2 sequence (P68363 whole entry K40R, chain 1 of 2): as the sequence (P68363 whole entry K40R, chain 1 of 2) above
T2 sequence (Q13509 whole entry R262A, chain 2 of 2): as the sequence (Q13509 whole entry, chain 2 of 2) above, with R262A counted along it
microtubules of recombinant human TUBA1B/TUBB3 tubulin with TUBB3 R262A (human), sequence (P68363 whole entry K40R, chain 1 of 2): as the sequence (P68363 whole entry K40R, chain 1 of 2) above
microtubules of recombinant human TUBA1B/TUBB3 tubulin with TUBB3 R262A (human), sequence (Q13509 whole entry R262A, chain 2 of 2, further chain): as the sequence (Q13509 whole entry, chain 2 of 2) above, with R262A counted along it
microtubules of recombinant human TUBA1B/TUBB3 tubulin with TUBB3 R262H (human), sequence (P68363 whole entry K40R, chain 1 of 2): as the sequence (P68363 whole entry K40R, chain 1 of 2) above
microtubules of recombinant human TUBA1B/TUBB3 tubulin with TUBB3 R262H (human), sequence (Q13509 whole entry R262H, chain 2 of 2, further chain): as the sequence (Q13509 whole entry, chain 2 of 2) above, with R262H counted along it

B1: two-headed KIF5B motor, human KIF5B construct HK432 (residues 1-432, SNAP tag, His6) (domain or fragment, UniProt P33176 1-432, looked up)
chain: MADLAECNIKVMCRFRPLNESEVNRGDKYIAKFQGEDTVVIASKPYAFDRVFQSSTSQEQVYNDCAKKIVKDVLEGYNGTIFAYGQTSSGKTHTMEGKLHDPEGMGIIPRIVQDIFNYIYSMDENLEFHIKVSYFEIYLDKIRDLLDVSKTNLSVHEDKNRVPYVKGCTERFVCSPDEVMDTIDEGKSNRHVAVTNMNEHSSRSHSIFLINVKQENTQTEQKLSGKLYLVDLAGSEKVSKTGAEGAVLDEAKNINKSLSALGNVISALAEGSTYVPYRDSKMTRILQDSLGGNCRTTIVICCSPSSYNESETKSTLLFGQRAKTIKNTVCVNVELTAEQWKKKYEKEKEKNKILRNTIQWLENELNRWRNGETVPIDEQFDKEKANLEAFTVDKDITLTNDKPATAIGVIGNFTDAERRKCEEEIAKLYKQL
modifications: fluorescent dye BG-549 (SNAP-surface 549) on the SNAP tag
notes: human kinesin-1 heavy chain KIF5B, residues 1-432; also called WT KIF5B
With B1, the results for the MT-activated kinesin ATPase, apparent Michaelis–Menten constant K0.5MT as multiple of that with WT MTs in assay [1] and in assay [2] were 9.7 times of WT and 10 times of WT, respectively. Moreover, the results for the MT-activated kinesin ATPase, kcat as percent of that with WT MTs in assay [1] and in assay [2] were 17 % of WT and 23 % of WT, respectively. In addition, in assay [3], the binding result is listed as “binds”.

B2: D279N KIF5B, construct HK432 (residues 1-432, SNAP tag, His6) (domain or fragment, human, UniProt P33176 1-432, looked up)
chain: B1 chain with D279N
modifications: fluorescent dye BG-549 (SNAP-surface 549) on the SNAP tag
notes: human kinesin-1 heavy chain KIF5B, residues 1-432, D279N in the L12 loop; also called mutant HK432
As for B2, the binding result in assay [3] was “binds”.

B3: D279R KIF5B, construct HK432 (residues 1-432, SNAP tag, His6) (domain or fragment, human, UniProt P33176 1-432, looked up)
chain: B1 chain with D279R
modifications: fluorescent dye BG-549 (SNAP-surface 549) on the SNAP tag
notes: human kinesin-1 heavy chain KIF5B, residues 1-432, D279R in the L12 loop; also called mutant HK432
Turning to B3, the “binding frequency, fold of that of WT KIF5B to WT MT” value in assay [4] is 2 fold. Further, the binding result in assay [3] was “binds”.

B4: D279R KIF5B, single-headed construct HK349 (residues 1-349, SNAP tag, His6) (domain or fragment, human, UniProt P33176 1-349, looked up)
chain: MADLAECNIKVMCRFRPLNESEVNRGDKYIAKFQGEDTVVIASKPYAFDRVFQSSTSQEQVYNDCAKKIVKDVLEGYNGTIFAYGQTSSGKTHTMEGKLHDPEGMGIIPRIVQDIFNYIYSMDENLEFHIKVSYFEIYLDKIRDLLDVSKTNLSVHEDKNRVPYVKGCTERFVCSPDEVMDTIDEGKSNRHVAVTNMNEHSSRSHSIFLINVKQENTQTEQKLSGKLYLVDLAGSEKVSKTGAEGAVLDEAKNINKSLSALGNVISALAEGSTYVPYRRSKMTRILQDSLGGNCRTTIVICCSPSSYNESETKSTLLFGQRAKTIKNTVCVNVELTAEQWKKKYEKEKE
modifications: fluorescent dye BG-549 (SNAP-surface 549) on the SNAP tag
notes: kinesin-1 heavy chain KIF5B, residues 1-349, D279R in the L12 loop
In the case of B4, the “fold increase in Kd against the WT–WT pair” value in assay [5] was determined as 10 fold; in assay [6] it was 2 fold.

B5: single-headed KIF5B construct HK349 (residues 1-349, SNAP tag, His6) (domain or fragment, human, UniProt P33176 1-349, looked up)
chain: B4 chain with R279D
modifications: fluorescent dye BG-549 (SNAP-surface 549) on the SNAP tag
notes: kinesin-1 heavy chain KIF5B, residues 1-349; monomeric construct; also called K349-SNAP-His; minimal motor
In the case of B5, the “fold increase in Kd against the WT–WT pair” value was around 70 fold in assay [5], around 6 fold in assay [6] and around 90 fold in assay [7].
